We go through 23 sequences from the supplement of paper PMC9233669.

This sample holds only a part of the variants without activity.

Data set [1] deals with biotinyl-Phe-oxazolone. As to the kind of experiment: self-aminoacylation, catalytic enhancement (BFO) (fold over background); higher = more active; k-Seq, kA / k0A0; sequences stand for … in GGGAAUGGAUCCACAUCUACGAAUUC…UUCACUGCAGACUUGACGAAGCUG
An outline of the steps: (§1)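 Each biotinyl-aminoacyl-oxazolone, at 2–1250 μM, was incubated with mutagenized RNA pools (0.43 μM) carrying a 21-nt variable region. The 50 μL reactions contained HEPES/NaCl/KCl/MgCl2/CaCl2 buffer with 5% acetonitrile at pH 6.9–7.0 and ran for 90 minutes at room temperature. After streptavidin capture, RNA was measured by qPCR in triplicate and by Illumina sequencing, and catalytic enhancement was calculated as median kA over the uncatalyzed rate from a pseudo-first-order fit of per-sequence fraction reacted.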

The subject of data set [2] is biotinyl-Ile-oxazolone. Kind of data set: self-aminoacylation, catalytic enhancement (BIO) (fold over background); higher = more active; k-Seq, kA / k0A0; sequences stand for … in GGGAAUGGAUCCACAUCUACGAAUUC…UUCACUGCAGACUUGACGAAGCUG
An outline of the steps:
as §1

In data set [3] the test system is biotinyl-Met-oxazolone. Kind of data set: self-aminoacylation, catalytic enhancement (BMO) (fold over background); higher = more active; k-Seq, kA / k0A0; sequences stand for … in GGGAAUGGAUCCACAUCUACGAAUUC…UUCACUGCAGACUUGACGAAGCUG
An outline of the steps: as §1

The test system of data set [4] is biotinyl-Val-oxazolone. As to the kind of experiment: self-aminoacylation, catalytic enhancement (BVO) (fold over background); higher = more active; k-Seq, kA / k0A0; sequences stand for … in GGGAAUGGAUCCACAUCUACGAAUUC…UUCACUGCAGACUUGACGAAGCUG
An outline of the steps:
as §1

In data set [5] the test system is biotinyl-Leu-oxazolone. As to the kind of experiment: self-aminoacylation, catalytic enhancement (BLO) (fold over background); higher = more active; k-Seq, kA / k0A0; sequences stand for … in GGGAAUGGAUCCACAUCUACGAAUUC…UUCACUGCAGACUUGACGAAGCUG
An outline of the steps:
as §1

Data set [6] deals with biotinyl-Trp-oxazolone. As to the kind of experiment: self-aminoacylation, catalytic enhancement (BWO) (fold over background); higher = more active; k-Seq, kA / k0A0; sequences stand for … in GGGAAUGGAUCCACAUCUACGAAUUC…UUCACUGCAGACUUGACGAAGCUG
An outline of the steps:
as §1

On to “AUUCAACUAGAUCAUCGGGUG [Fam2.2 aminoacylation ribozyme variant]”, for which the self-aminoacylation amounted to 9.72 in data set [1]; 1.82 in data set [2]; 2.44 in data set [3]; 1.77 in data set [4]; 2.53 in data set [5]; 2.93 in data set [6].

Regarding “AUUCAACUAGCUCAUCGGGUG [Fam2.2 aminoacylation ribozyme variant]”, the self-aminoacylation in data set [1] turned out to be 15; in data set [2] it was 2.04; in data set [3] it was 1.74; in data set [4], 2.45; in data set [5] it was 2; in data set [6] it was 1.82.

In the case of “AUUCAACUAGGCCAUCGGGUG [Fam2.2 aminoacylation ribozyme variant]”, the self-aminoacylation in data set [1] stood at 21.5; in data set [2], 2.61; in data set [3], 3.66; in data set [4] it was 2.31; in data set [5], 3.74; in data set [6], 3.9.

Regarding “AUUCAACUAGGUCAUCAGGUG [Fam2.2 aminoacylation ribozyme variant]”, the self-aminoacylation in data set [1] worked out at 1.43; in data set [2], 1.28; in data set [3], 1.29; in data set [4], 1.22; in data set [5] it was 1.54; in data set [6], 1.33.

For “AUUCAACUAGGUCAUCGGGCG [Fam2.2 aminoacylation ribozyme variant]”, the self-aminoacylation in data set [1] turned out to be 5.35; in data set [2] it was 2.48; in data set [3], 2.73; in data set [4] it was 2.36; in data set [5] it was 3.67; in data set [6] it was 2.46.

In the case of “AUUCAACUAGGUCAUCGGGGG [Fam2.2 aminoacylation ribozyme variant]”, the self-aminoacylation in data set [1] came to 0.813; in data set [2] it was 1.75; in data set [3], 1.59; in data set [4], 1.66; in data set [5], 1.86; in data set [6] it was 2.56.

On to “AUUCAACUAGGUCAUCGGGUG [Fam2.2 aminoacylation ribozyme variant]”, for which the self-aminoacylation is 40.6 in data set [1]; 3.6 in data set [2]; 5.65 in data set [3]; 3.47 in data set [4]; 7.19 in data set [5]; 5.46 in data set [6].

In the case of “AUUCAACUAGGUCAUGGGGUG [Fam2.2 aminoacylation ribozyme variant]”, the self-aminoacylation in data set [1] was found to be 27.7; in data set [2], 2.96; in data set [3], 4.28; in data set [4] it was 3.16; in data set [5], 5.63; in data set [6], 4.16.

On to “AUUCAACUGGGUCAUCGGGUG [Fam2.2 aminoacylation ribozyme variant]”, for which the self-aminoacylation in data set [1] turned out to be 39.5; in data set [2] it was 3.89; in data set [3], 5.25; in data set [4], 3.96; in data set [5], 7.37; in data set [6], 5.74.

In the case of “AUUCAAGUAGGUCAUCGGGUG [Fam2.2 aminoacylation ribozyme variant]”, the self-aminoacylation in data set [1] amounted to 36.6; in data set [2] it was 3.73; in data set [3], 5.19; in data set [4], 3.43; in data set [5], 7.04; in data set [6], 5.33.

“AUUCACAGAGGUCAUCGGGUG [Fam2.2 aminoacylation ribozyme variant]”: the self-aminoacylation in data set [1] was 45.9; in data set [2] it was 4.48; in data set [3], 6.99; in data set [4] it was 5.02; in data set [5], 7.94; in data set [6], 6.32.

Consider “AUUCACAUAGGUAAUCGGGUG [Fam2.2 aminoacylation ribozyme variant]”, for which the self-aminoacylation in data set [1] was determined as 34; in data set [2], 2.65; in data set [3] it was 4.85; in data set [4] it was 2.6; in data set [5], 5.2; in data set [6], 4.8.

With “AUUCACAUAGGUCACCGGGUG [Fam2.2 aminoacylation ribozyme variant]”, the self-aminoacylation came to 42.3 in data set [1]; 4.8 in data set [2]; 5.7 in data set [3]; 4.6 in data set [4]; 7.78 in data set [5]; 5.42 in data set [6].

With “AUUCACAUAGGUCAUCCGGUG [Fam2.2 aminoacylation ribozyme variant]”, the self-aminoacylation in data set [1] came to 55.9; in data set [2], 5.32; in data set [3], 7.79; in data set [4], 5.53; in data set [5], 9.85; in data set [6] it was 7.74.

With “AUUCACAUAGGUCAUCGCGUG [Fam2.2 aminoacylation ribozyme variant]”, the self-aminoacylation in data set [1] turned out to be 108; in data set [2] it was 7.23; in data set [3], 14; in data set [4] it was 7.84; in data set [5], 17.6; in data set [6] it was 12.1.

Turning to “AUUCACAUAGGUCAUCGGGUC [Fam2.2 aminoacylation ribozyme variant]”, the self-aminoacylation in data set [1] turned out to be 0.659; in data set [2] it was 1.51; in data set [3] it was 1.39; in data set [4], 1.65; in data set [5], 1.34; in data set [6], 1.49.

As for “AUUCACAUAGGUCAUCGGGUU [Fam2.2 aminoacylation ribozyme variant]”, the self-aminoacylation in data set [1] was determined as 8.48; in data set [2] it was 1.9; in data set [3], 2.13; in data set [4] it was 1.76; in data set [5] it was 2.22; in data set [6], 1.97.

Turning to “AUUCACAUAGGUCAUCGUGUG [Fam2.2 aminoacylation ribozyme variant]”, the self-aminoacylation in data set [1] came out at 2.09; in data set [2], 0.867; in data set [3], 0.835; in data set [4], 0.841; in data set [5] it was 0.942; in data set [6], 0.867.

Consider “AUUCACAUAGGUCCUCGGGUG [Fam2.2 aminoacylation ribozyme variant]”, for which the self-aminoacylation in data set [1] is 51.3; in data set [2] it was 4.33; in data set [3], 7.55; in data set [4] it was 4.71; in data set [5] it was 9.43; in data set [6], 7.63.

In the case of “AUUCACAUAGGUUAUCGGGUG [Fam2.2 aminoacylation ribozyme variant]”, the self-aminoacylation is 40.2 in data set [1]; 3.23 in data set [2]; 5.32 in data set [3]; 3.67 in data set [4]; 6.69 in data set [5]; 5.37 in data set [6].

Take “AUUCACCAACGUCAUCGGGUG [Fam2.2 aminoacylation ribozyme variant]”: the self-aminoacylation in data set [1] is 74; in data set [2], 5.28; in data set [3], 8.41; in data set [4], 5.26; in data set [5], 11.8; in data set [6] it was 7.38.

As for “AUUCACCAAGGUCAUCAGGUG [Fam2.2 aminoacylation ribozyme variant]”, the self-aminoacylation in data set [1] worked out at 3.44; in data set [2], 1.6; in data set [3], 2.1; in data set [4], 1.37; in data set [5] it was 2.25; in data set [6], 1.79.

As for “AUUCACCAAGGUCAUCUGGUG [Fam2.2 aminoacylation ribozyme variant]”, the self-aminoacylation is 28 in data set [1]; 2.38 in data set [2]; 3.53 in data set [3]; 2.29 in data set [4]; 5.5 in data set [5]; 3.52 in data set [6].
